# Laboratory results taken from patent publication US10577428B2, “Anti-factor XI monoclonal antibodies and methods of use thereof” (Oregon Health & Science University, priority 2007, dated 2020).
# “Also recorded” adds a separate entry of the source. Read-outs that look alike come from different tables or passages of the source.
# Columns and labels:
# baboons = experiment: Standard template skin bleeding time test (Surgicutt); type: in vivo, baboon
# Procedure: The effects of FXI inhibition and aspirin on primary hemostasis in baboons were assessed using the standard template skin bleeding time test (Surgicutt®, International Technidyne Corp). […] All bleeding time measurements were performed by the same expert technician. For indirect assessment of hemostasis, aPTT and PT measurements were also performed.
# Human FXI in plasma = biological target: T1, Human FXI in plasma (Homo sapiens, UniProt P03951); experiment: Western blot of human plasma; type: binding
# T1 construct: antibody 1A6 recognizes Factor XI in human and non-human primate plasma; from tissue; host or cells: normal human plasma (A4); whole human blood or reconstituted FXII-deficient human blood (A9)
# Source text: Results from a Western Blot study corroborating that anti-factor XI monoclonal antibody 1A6 recognizes Factor XI in human and non-human primate plasma is shown in FIG. 7A.
# Prekallikrein (PK) = Prekallikrein (PK) (Homo sapiens, UniProt P03952); experiment: Western blot binding to prekallikrein
# Chain of Prekallikrein (PK) (P03952 20-638): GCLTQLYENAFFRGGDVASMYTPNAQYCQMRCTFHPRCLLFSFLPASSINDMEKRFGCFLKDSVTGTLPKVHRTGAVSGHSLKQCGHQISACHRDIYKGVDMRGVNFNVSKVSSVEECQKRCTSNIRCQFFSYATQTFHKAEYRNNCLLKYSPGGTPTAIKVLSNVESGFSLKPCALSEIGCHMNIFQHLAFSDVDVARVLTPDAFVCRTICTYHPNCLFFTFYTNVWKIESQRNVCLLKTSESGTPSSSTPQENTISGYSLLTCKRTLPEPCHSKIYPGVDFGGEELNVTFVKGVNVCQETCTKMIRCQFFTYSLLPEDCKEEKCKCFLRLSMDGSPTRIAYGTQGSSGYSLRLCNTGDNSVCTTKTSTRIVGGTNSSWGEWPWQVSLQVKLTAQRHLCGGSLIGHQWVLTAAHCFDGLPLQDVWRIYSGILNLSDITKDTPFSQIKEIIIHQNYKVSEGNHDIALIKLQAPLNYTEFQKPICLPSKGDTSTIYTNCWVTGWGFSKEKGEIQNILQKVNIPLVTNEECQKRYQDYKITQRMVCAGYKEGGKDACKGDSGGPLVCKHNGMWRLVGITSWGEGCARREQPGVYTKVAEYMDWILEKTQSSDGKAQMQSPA
# Procedure: (§1) Comparative binding studies for monoclonal antibody 1A6 were conducted using FXI, Prekallikrein (PK), and FXI/PK chimeras involving either the substitution FXI domains with PK domains (FIG. 9) or the substitution of PK domains with FXI domains (FIG. 10).
# FXI [1] = experiment: FXI procoagulant activity, aPTT and PT after single i.v. bolus in baboons; type: in vivo, baboon
# Procedure: The maximum achievable prolongation of the aPTT was about 2.5 fold. FXI:Ag was measured by ELISA using goat anti-human FXI polyclonal capture and detection (horseradish peroxidase conjugated [HRP]) antibodies (Affinity Biologicals, Hamilton, Ontario), which also recognized baboon FXI and its complex with aXIMab. A standard curve was constructed with serial dilutions of NBP, and FXI concentrations were determined in percentage of NBP. Western blots for FXI were performed by size fractionation of 1 μl samples of plasma under non-reducing conditions on 7.5% polyacrylamide-SDS gels, followed by transfer to PVDF membranes. Detection was with a goat-anti-human FXI polyclonal antibody conjugated to HRP and chemiluminescence.
# The anticoagulant effect (aPTT) was monitored daily, and thrombosis experiments were performed while the FXI procoagulant activity in the circulating blood was reduced by ≥99%, as assessed by comparing the clotting times to a standard curve generated with FXI deficient human plasma (George King Bio-Medical).
# FXI [2] = experiment: FXI clotting assay in vitro (FXI deficient human plasma, NBP dilutions as standards); type: biochemical, baboon; conditions: serial dilutions of NBP as standards
# [3] = test system: recombinant FXI proteins with mutations within the A3 domain; experiment: Western blot binding to recombinant FXI A3 domain alanine mutants; design: species or system human; conditions: 2 or 3 adjacent amino acids replaced with Alanine (FIG. 11)
# Procedure: Binding studies were also conducted using recombinant FXI proteins involving mutations of different amino acids within the A3 domain to determine amino acids important for the binding of monoclonal antibody 1A6. An example of the binding of monoclonal antibody 1A6 to a panel of 25 such recombinant proteins in which 2 or 3 adjacent amino acids within the A3 domain were replaced with Alanine is shown in FIG. 11. […] Based on such studies, amino acids important for the binding of monoclonal antibody 1A6 to the FXI A3 domain were determined, and are shown in FIG. 12 (amino acids 183 to 197, 203 to 204, 234 to 236, 241 to 243, 252 to 254, and 258 to 260 of SEQ ID NO:1).
# [4] = test system: third apple (A3) domain of the FXI heavy chain; experiment: Immunoblotting of FXI and recombinant FXI/prekallikrein chimeras; type: binding, human; conditions: for FXI domain recognized: immunoblotting of recombinant FXI/prekallikrein chimeras
# Procedure: as §1
# FXI [5] = biological target: T2, FXI (Homo sapiens, UniProt P03951); experiment: Flow chamber coagulation studies (blood perfused over collagen); type: cell-based
# T2 construct: antibody 1A6 recognizes Factor XI in human and non-human primate plasma; from tissue; host or cells: normal human plasma (A4); whole human blood or reconstituted FXII-deficient human blood (A9)
# Procedure: Glass capillary tubes were coated with 100 μg/ml Horm collagen (Nycomed Arzenmittel, Munich, Germany). Whole human blood was collected into corn trypsin inhibitor (CTI, 40 μg/ml), discarding the first 1 ml to limit any activation of the coagulation pathway, and then perfused through the tubes at a shear rate of 265 s^−1 for 10 min. […] In separate experiments, washed platelets and RBCs were processed as described (McCarty et al. (2006) J. Thromb. Haemost. 4:1367-1378), and then mixed with FXII deficient human plasma (<1% FXII, Haematologic Technologies, Essex Junction, Vt.) to reach a hematocrit of 40% and platelet count of 300×10^3/μl. […] Recalcified FXII deficient human plasma without RBCs or platelets was also perfused over collagen. Images were obtained by DIC microscopy after three minutes of perfusion with modified Tyrodes buffer.
# When whole human blood, which was anticoagulated with CTI to block the function of FXIIa, was perfused over collagen at arterial shear (265 s^−1), platelets were deposited in large aggregates which became enveloped by forming fibrin strands (FIG. 7B). […] The outcome was similar when using reconstituted FXII deficient blood, with or without CTI. […] No fibrin was formed when recalcified FXII deficient human plasma was perfused over collagen. For these experiments, human whole blood, anticoagulated with CTI (40 μg/ml) to inhibit FXIIa, or reconstituted FXII deficient human blood was perfused through collagen coated capillary tubes at a shear rate of 265 s^−1 for 10 minutes. […] Images were obtained via Kohler-illuminated Nomarski differential interference contrast (DIC) microscopy with a Zeiss Axiovert 200M microscope using a Zeiss 63× oil immersion 1.40 NA plan-apochromat lens. Images were captured following three minutes of perfusion with modified Tyrodes buffer using a Zeiss AxioCam with Slidebook 4.0 (Intelligent Imaging Innovations, Inc., Denver, Colo., USA). All experiments were performed at 37° C. Each image in FIG. 7B is representative of 2-3 experiments.
# platelet rich plasma = experiment: Platelet aggregation in platelet rich plasma in response to ADP and collagen; type: cell-based, baboon; conditions: platelet rich plasma of treated animals versus control
# [6] = CTI (40 μg/ml) whole human blood, aXIMab 20 μg/ml, collagen, 265 s^-1, 10 min
# [7] = FXII-inhibited or deficient human blood under flow (FIG. 7B)
molecule,measurement,setting,value
"aXIMab: neutralizing murine IgG/kappa anti-human FXI monoclonal antibody from hybridoma 1A6; binds A3 domain; VH SEQ ID NO:3, VL SEQ ID NO:5 (antibody, listed as Mus musculus, V domains shown) VH: QVTLKESGPGILKPSQTLSLTCSFSGFSLSTSGMGVGWIRQPSGKGLEWLAHIWWDDDKYYNPSLKSQLTISKDTSRNQVFLKITSVDAADTATYYCARKRSSVVAHYYAMDYWGQGTSVTVSS VL: DIVLTQSPASLAVSLGQRATISCKASQSVDYDGDSYLNWYQQKPGQPPKLLIYAASNLESGIPARFSGSGSGTDFTLNIHPVEEEDAATYYCQQSNGDPWTFGGGTKLEIK",effect on bleeding time / hemostasis,"baboons; FIG. 6, compared with no treatment controls",did not demonstrably impair hemostasis
same,standard template bleeding time,baboons; vehicle-treated controls 3.4±0.2 min,3.5 ± 0.3 min
same,recognition of FXI on Western blot,Human FXI in plasma,single band at 160 kDa
same,recognition of FXI on Western blot,Human FXI in plasma; listed as 1A6,recognizes
same,binding to PK,Prekallikrein (PK),did not bind
same,day by which all clotting times normalized,"FXI [1]; 2 mg/kg i.v. bolus, one-stage clotting assay",≤ 11 days
same,FXI procoagulant activity inhibited,"FXI [1]; 1 hr after infusion, 2 mg/kg i.v. bolus, 4 baboons, range 98.8-99.5%",99.0%
same,PT,"FXI [1]; after aXIMab administration, n=11, PBS vehicle 9.0±0.1 sec",9.1 ± 0.1 s
same,aPTT,"FXI [1]; after aXIMab administration, control 30.5±0.7 sec",65.6 ± 2.0 s
same,"PT, differences between groups",FXI [1]; all baboons,no differences
same,IC99,FXI [2],10 nM
same,binding to FXI A3 domain mutants,[3],did not bind to some mutants
same,binding to FXI/PK chimeras,[4]; FXI domains substituted with PK domains (FIG. 9),bound all FXI/PK chimeras except the chimera in which the A3 domain of FXI was substituted with a PK domain
same,binding to FXI/PK chimeras,"[4]; PK domains substituted with FXI domains (FIG. 10), listed as 1A6",bound only to chimeras in which the A3 domain of FXI had been inserted; also recorded: bind only to chimeras in which the A3 domain of FXI had been inserted
same,FXI domain recognized,[4],specifically recognized the third apple (A3) domain
same,FXI domain recognized,[4]; listed as 1A6,bound to an epitope on the FXI A3 domain
same,Fibrin deposition,FXI [5]; [6],noticeably attenuated
same,platelet adhesion,FXI [5]; [6],modest reduction
same,platelet accumulation,FXI [5]; [7],reduced
same,visible fibrin formation,FXI [5]; [7],prevented
same,fibrin formation,"FXI [5]; reconstituted FXII deficient human blood, with or without CTI, aXIMab 20 μg/ml",interrupted fibrin formation
same,Platelet aggregation in response to ADP and collagen,platelet rich plasma,unchanged
